We go through 3 molecules from article PMC9727766 (bioRxiv, 2022).

Assay [1] has as its target T1, SARS-CoV-2 S protein, C-terminally truncated (pSARS-CoV2-S_trunc), ancestral, on 293T cells (SARS-CoV-2 ancestral (Wuhan), UniProt P0DTC2). The experiment in a line: flow cytometry on cells.
In assay [2] the target is T1, SARS-CoV-2 S protein, C-terminally …. Description: cell-based or functional assay.
The target of assay [3] is SARS-CoV-2 fusion peptide (FP) peptide 812…831 (SARS-CoV-2 ancestral, Biotin-Ahx at the N-terminus; C-terminal amidation). Description: crystal structure.

B1: fp.006 monoclonal antibody (IgG) (antibody, V domains shown)
VH: EVQLVESGGGVVQPGGSLRLSCAASGFNFNNYALHWVRQAPGKGLEWVAIISYEARNKKYGVSVMGRFSISRDNSKSIMYLEMNSLRVEDTGVYYCARDLFLSDYDRSGYDPTRGGFDHWGQGTLVTVSS
VL: EIVMTQSPATLSVSPGERATLSCRASQSVSSSLAWYQHRFGQAPRLLISGASTRATGIPGRFSGSGSGTEFTLTISSLQSEDVAVYYCQQYGDWPLVTFGGGTKVEIK
Regarding B1, the “fold increase of binding with soluble ACE2” value in assay [1] was determined as 5.8 fold. For the same molecule, the “IC50 of neutralisation of SARS-CoV-2 pseudovirus (ancestral)” value in assay [2] turned out to be 0.737 mg/L.

B2: fp.006 Fab (Fab, V domains shown)
VH: EVQLVESGGGVVQPGGSLRLSCAASGFNFNNYALHWVRQAPGKGLEWVAIISYEARNKKYGVSVMGRFSISRDNSKSIMYLEMNSLRVEDTGVYYCARDLFLSDYDRSGYDPTRGGFDHWGQGTLVTVSS
VL: EIVMTQSPATLSVSPGERATLSCRASQSVSSSLAWYQHRFGQAPRLLISGASTRATGIPGRFSGSGSGTEFTLTISSLQSEDVAVYYCQQYGDWPLVTFGGGTKVEIK
Regarding B2, the binding result in assay [3] is recorded as “binds”.

B3: sd1.040 monoclonal antibody (IgG) (antibody, V domains shown)
VH: QVQLVQSGAEVKKPGASVKVSCKASGYTFTSFYIHWVRQAPGQGLEWMGIIDPSGGSTSYPQKFQGRVTMTRDTSTSTVYMDLSSLRSEDTAVYYCTRDGSAGDNSWFDPWGQGTLVTVSS
VL: not shown
With B3, in assay [2], the “IC50 of neutralisation of SARS-CoV-2 pseudovirus (ancestral)” value came out at 0.245 mg/L.
